Measured values from patent publication US12668638B2, “Antibodies that bind EGFR and cMET” (Merus B.V., priority 2017, dated 2026).

Columns and labels:
cMET and EGFR = conditions: cited from earlier work
tumor cell line H1975 = conditions: H1975 expresses the cMET ligand HGF; cited from earlier work
HCC827 tumor cells = test: HCC827 xenograft in NSG-hHGFki mice; type: in vivo, mouse
Description: The VH of the cMET variable domain of PB19748 comprises the amino acid sequence of MF8230 (see FIG. 8). […] The VH of the EGFR variable domain of PB19748 comprises the amino acid sequence of MF8233 of FIG. 7. […] In the chosen model, HCC827 tumor cells are engrafted into immunodeficient NOD SCID gamma (NSG) human hepatocyte growth factor knock-in (hHGFki) mice, that express human HGF (ligand for cMET) in place of endogenous mouse HGF. […] They have no T or B cells, lack functional NK cells, and are deficient in cytokine signaling, which allows for better tumor engraftment.
Prior to tumor cell engraftment, the cell cycle of HCC827 cells was boosted by culturing the cells overnight in medium supplemented with 20% fetal bovine serum (FBS) at confluency not exceeding 80%. […] The resulting tumors were measured twice each week using calipers. When the mean tumor volume reached approximately 200 mm^3, the mice were randomized into two groups (4-7 mice per group depending on tumor growth and volume) and drug treatment was started.
Tumor volume was measured twice each week using calipers, and mean tumor volume (and SEM) calculated for each group. When tumor sizes reached 1500 mm^3 mice were euthanized. Treatment was stopped after day 48, and tumor volume in surviving mice was measured up to day 62. […]
As before, tumor volume was monitored and mean tumor volume (and SEM) calculated in each group. All treatments were stopped after day 60, and tumor volume in surviving mice was measured up to day 82.
As before, tumor volume was monitored and mean tumor volume (and SEM) calculated in each group. All treatments were stopped after day 93, and tumor volume in surviving mice was measured up to day […].
In a fourth experiment the effect of a later administration of PB19478 was tested.
On day 51 when the mean tumor volume had clearly passed the 500 mm 3 mark the mice were randomized into two groups. […] As before, tumor volume was monitored and mean tumor volume (and SEM) calculated in each group. All treatments were stopped after day 72.

JNJ-61186372: bispecific cMETxEGFR antibody produced by controlled Fab-arm exchange (Moores et al 2016)
affinity imbalance, greater affinity for cMET than EGFR (cMET and EGFR): approximately 40 ×
activity in vivo (tumor cell line H1975): active in vivo

C#Cc1cccc(Nc2ncnc3cc(OCCOC)c(OCCOC)cc23)c1 [erlotinib, reference compound]
anti-tumor response (HCC827 tumor cells; mouse, in vivo): able to induce an anti-tumor response

B1: LY2875358: humanized monoclonal cMET antibody emibetuzumab (antibody, chains of the INN, looked up, V domains shown)
VH: QVQLVQSGAEVKKPGASVKVSCKASGYTFTDYYMHWVRQAPGQGLEWMGRVNPNRRGTTYNQKFEGRVTMTTDTSTSTAYMELRSLRSDDTAVYYCARANWLDYWGQGTTVTVSS
VL: DIQMTQSPSSLSASVGDRVTITCSVSSSVSSIYLHWYQQKPGKAPKLLIYSTSNLASGVPSRFSGSGSGTDFTLTISSLQPEDFATYYCQVYSGYPLTFGGGTKVEIK
anti-tumor response (HCC827 tumor cells; antibody 25 mg/kg weekly i.p. plus erlotinib 6 mg/kg daily gavage): less effective than PB8532
anti-tumor response (HCC827 tumor cells; antibody 25 mg/kg weekly i.p. plus erlotinib 6 mg/kg daily gavage, listed as LY3875358): less effective
anti-tumor response (HCC827 tumor cells; antibody 25 mg/kg weekly i.p. plus vehicle (without erlotinib)): less effective than PB8532
anti-tumor response (HCC827 tumor cells; antibody 25 mg/kg weekly i.p. plus vehicle (without erlotinib), listed as LY3875358): less effective
